According to the DeepSol protein solubility set:

Assay: soluble on expression in E. coli; label from the status in PepcDB or PDB records

Sequence | soluble on expression in E. coli
MGSDKIHHHHHHMNWLLNISTHGSDLEIAGPEWSEAVSLLRRTGMDGFELYPAGAYDCTAIPKEIVGGVHLRFFVMLRQIWQNDREGLLRMFGSEQTVRHYYSGVNREAVISCYRSQLELAARFNVPYVVFHPVHYELEYVFNWQPPWGWRETVDLSTEIINEVVRDTPYDGWILFENLWWPGNFRLDSTDEIDRLLSKVRWPKCGIVLDTAHILNKNQELRTEEEAIAFLLRQVERLGDYRQLIKAVHLSKSLSGEAAKAGFANADPFCGAHDFWQRFSIALRHVRDLDRHEPFSHSMLGELFDLIEPDNVVFELAFSSLDEWIGKIEQQQRALQRFFPECRIKENLY | not soluble
MKFSRPVLSVNHLILGKKCDVCRKKCSGDVLKANDKYFHINCFQCKKCGRNLGETGFYTTPENAYLCPDDFRAVSKEITVKTTTQQAHASSSSAATPKSPEKSNGTTDVSSSGAANATLQQISPLGSPTTCAACDQALHSGQVLLALGLSWHVYCFKCSECSAVLHGEYMSHHGKPLCLRDYNEKFGVKCYECEKFIAGKVLQAGGYKFHPTCARCSRCGSHFGDGEEMYMQGDEIWHPSCEHARTTENIAPTGRAATLSRNEPKYQSTFGQHQAYMYLLPEVEQTYLRHPVMNAKEPNAPQYHVPQGPIKIRKSRMSMLKTGMQRLTEDLEKNIPRPKSPHMDNEEPIELAHYPAAHVPDPDTLPAIEREDFPAPQFPYAVEELKRRLSTSSVENEISDDEYSESDKVDEDKLRKTVETLEKYNDSSIAHVIRQNIEDSHKKQRLPLHWDPRNASRTPSGKKMPHLKFRYDVPINASPSRHLNRPRPWVVWQGGERDQGNNTLPCFHIPEDSRANTLRAATLPTEFGQNLSLENLDTTISSHYSEHSTTESGTAGGPRSAGGAVLRSSLPDMSKPAKQYDLLFLQTTNSDLPEDVDRQHLERHLPRDQFEEIFKMSLIEFYKLPEWKRINLKRKHKLF | not soluble
MPLLCALIVGGLFGTSQAQAGGFMVPTTNTAGWGRAMAGGSLFPNDPSAAFNNPAAMAFIDKRIAQLTVNYADIDIKYNGDAYDYQGNPMTGGYQDGPGTPELGTNDGGQAGFGAWLPTGFLVVPINDRFAFGLSQVVPMGMRSTWDPNWKGRDFAVDTKIETIGLTGSLSFKVNDNFSLGAGVIIQRTSGFVSQNLDLYASAANSPGMGGIPFPASNSSALMRVKVDNTSPGFFAGAVWKPTDRDTLGFAYHAKIRNKLKGHYNLYDHDGGLTEGAIEGGTPGLAYPGLDLRMGASASARLDIPAYASLDWVHQFNDRLSLGASATWTEWSSFQDLTLKSHGNTIVSIPYTYRNTWTLAVGGDYKVTDQWTMRAGVAYDQTPTHNATRDPRIPDGDRYFASLGAGYRFQSMPELSIDAAYSRQFVKEVPLKTVNQDRLGGGRLDGRATSKGQVFSLSATYDF | not soluble
GGGPFIVVAHSQGSMIAYHVLRQLKKADCDVRLFITIGSPLGIQEAQDVLGKIGSGKPLAVPECVDRWLNVAERLDPVALDSDLGNDYQPNSHGVKIENHAGLMINPEWASNPHSGTGYLSLDIVRQAVRETAGPTFSNPVGRNILMKDLVDNIEDGHREQRHPTLIQLVSDDDDATSLDEVRDRLSNLIKNVL | not soluble
MGSDKIHHHHHHMERAAFGKLVQALRREHRDEKGRVWTQEVLAERTQLPKRTIERIENGSLAHLDADILLRLADALELTIGERREFFFAATGIIEQKSATYKRSPEESLQYLIDMIRNMNVPAFVTDQYVNIIAANMITIRFFNIPMELIETAPLLPHGYNLMRVVFGTEYDFRRVVGTMWDEVARHNMQLFRAISLRVRADGYFVELLDNLMQYREFKRFWERAHLETEDTSAENFWYQYTHPVYGLLSYVSSRSQIPTSMGLLSMHTYIPLSPATTDLFAKLSTVANQDVIRLAPWPRSNG | not soluble
MKEEAVRVIEEVLKQGRTAMVEYEAKQVLKAYGLPVPEEKLAKTLDEALEYAKEIGYPVVLKLMSPQILHKSDAKVVMLNIKNEEELKKKWEEIHENAKKYRPDAEILGVLVAPMLKPGREVIIGVTEDPQFGHAIMFGLGGIFVEILKDVTFRLVPITEKDARKMIQEIKAYPILAGARGEEPADIDAIVDMLLKVSKLVDDLKDYIKEMDLNPVFVYNKGEGAVIVDSRIILKPKD | soluble
MSLVNDITYGREAEVWPRDYSMLARRIQFLRFNDYPIKLVSSNGHSIIGYISKFNQKENMILASDEAKGNNRVEVKLESIASLEELLVGKDFTTRLIVGDVFNNQPCPPTKKDFFSICNKCFKQGIGIKVHMLDGRILTGKTTGVNACQVGIIKSNGNHMQIMFDWVSRITSSDYSGEGHHHHHH | soluble
MPEGPEVALTADILEKYFKGKTLEYIDFISGRYSKSEPEGYDDFIANLPLKVSNVDTKGKFLWFELFDPNDKSNKWYIWNTFGLTGMWSLFEAKYTRAVLSFDNELMAYFSDMRNFGTFKFSNSEKELKRKLNELGPDFLKNDDIDISKIKKYKQPIVALLMDQKKIGSGLGNYLVAEILYRAKIDPHKLGSNLTDQEIENLWYWIKYETKLAYDSNHIGYMVNLENESSKIGRKNYHPNIHPTEKEFDFLVYRKKKDPNGNKVIADKIIGSGKNKRTTYWAPAIQKLEHHHHHH | soluble
AEVPLPQLRAYTVDASWLQPMAPLQIADHTWQIGTEDLTALLVQTPDGAVLLDGGMPQMASHLLDNMKARGVTPRDLRLILLSHAHADHAGPVAELKRRTGAKVAANAESAVLLARGGSDDLHFGDGITYPPANADRIVMDGEVITVGGIVFTAHFMAGHTPGSTAWTWTDTRNGKPVRIAYADSLSAPGYQLQGNPRYPHLIEDYRRSFATVRALPCDVLLTPHPGASNWDYAAGARAGAKALTCKAYADAAEQKFDGQLAKETAGAR | soluble
MGSDKIHHHHHHMPLLPQPAGSVTTGRYTFAAAQVHAQTLTVCIVCNNTLYPAGSAVMSRVNVSLLQSGMILSEDVTDSNGRKLLCAGDAITEKHLRILKIWGVAEVDVEGIEPADAARSALDGLDPLRVEAAAARATARFALNDLQYEPVCMLMQCSVAALAKGADPVAPLPDYSVLPAAPMPSAPPALADMLRDDTRLGSLPPVFHRLVDVVNDPRSSATDMAEVIANDTDLSARLLRLVNSTFYGLRAKVDTITRAVTIIGSNQLVSLAMGAVMTTFFKGLPNSIVDMRSFWEHSVACGVAARLLASLHRMPNTERFFVAGLLHDIGRLAVYRLLPEHSLYMLTESRRRGISMRAMEREVLGFSHDRLGGRLLKEWRCPVSLERNVALHHTPGSGHGGLESAIINVADILAHTLEFGTSGEVLVPRLEQAVWDALALPAGTLEQAAAQMDYQVHEIIRFFELDE | not soluble
MYYQQALMRSTVKSSVSLGGIVKYSEQFSSNDAIMSGCLPSNPWITDDTQFWDLNAKLVEIPTKMRVERWAFNFSELIRDPKGRQSFQYFLKKEFSGENLGFWEACEDLKYGDQSKVKEKAEEIYKLFLAPGARRWINIDGKTMDITVKGLKHPHRYVLDAAQTHIYMLMKKDSYARYLKSPIYKDMQAKAIDPQETTKKSSTLPFMRRHLRSSPSPVILRQLEEEAKAREAANTVDITQPGQHMAPSPHLTVYTGTCMPPSPSSPFSSSCRSPRKPFASPSRFIRRPTICPSPILVVLDSSSGLEQKGECSWSGANPGPSVTDSSEASRDTSWTRSRPRAPLKARMALSFSRFLRRGCLASPVFARVSPKCPAVSHGRVQPLGDVGQQLPRLKSKRVANFFQIKMDVPTGSGTCLMDSEDAGTGESGDRATEKEVICPWESL | not soluble
SNPFAHLAEPLDPVQPGKKFFNLNKLEDSRYGRLPFSIRVLLEAAIRNCDEFLVKKQDIENILHWNVTQHKNIEVPFKPARVILQDFTGVPAVVDFAAMRDAVKKLGGDPEKINPVCPADLVIDHSIQVDFNRRADSLQKNQDLEFERNRERFEFLKWGSQAFHNMRIIPPGSGIIHQVNLEYLARVVFDQDGYYYPDSLVGTDSHTTMIDGLGILGWGVGGIEAEAVMLGQPISMVLPQVIGYRLMGKPHPLVTSTDIVLTITKHLRQVGVVGKFVEFFGPGVAQLSIADRATIANMCPEYGATAAFFPVDEVSITYLVQTGRDEEKLKYIKKYLQAVGMFRDFNDPSQDPDFTQVVELDLKTVVPCCSGPKRPQDKVAVSDMKKDFESCLGAKQGFKGFQVAPEHHNDHKTFIYDNTEFTLAHGSVVIAAITSCTNTSNPSVMLGAGLLAKKAVDAGLNVMPYIKTSLSPGSGVVTYYLQESGVMPYLSQLGFDVVGYGCMTCIGNSGPLPEPVVEAITQGDLVAVGVLSGNRNFEGRVHPNTRANYLASPPLVIAYAIAGTIRIDFEKEPLGVNAKGQQVFLKDIWPTRDEIQAVERQYVIPGMFKEVYQKIETVNESWNALATPSDKLFFWNSKSTYIKSPPFFENLTLDLQPPKSIVDAYVLLNLGDSVTTDHISPAGNIARNSPAARYLTNRGLTPREFNSYGSRRGNDAVMARGTFANIRLLNRFLNKQAPQTIHLPSGEILDVFDAAERYQQAGLPLIVLAGKEYGAGSSRDWAAKGPFLLGIKAVLAESYERIHRSNLVGMGVIPLEYLPGENADALGLTGQERYTIIIPENLKPQMKVQVKLDTGKTFQAVMRFDTDVELTYFLNGGILNYMIRKMAK | soluble
MLILSEQEIQRLYTMEEAISDVKEILRQKQAGNVNTPERTVLSFPHYDASILYMPSVKTGAAAVKVVSIFPHNPPLGKPTTQGVIILTDTKTEEHRMLCNATYLTRLRTGALSAIAADYLAKREASRLAVIGTGAMAREQVAGMLEVRGIEHIFLYNRTRSKAERFALEGW | not soluble
MTATSNSAPLAGGSLSSSATAQPPQPPPGHQQQHPLPQIYDSQMQYYYGSSMPNQPIPTYTAQNGAPQQFGTPPYYQDANGQFGQVPAQQQMMTAGHPYFYMAQPQQGGQHVAQSGQPQIFYYQQPLGQMAQQAAPMYFHPMQAASTPMLSEQMSMMPQIQSTNPQQSEQLRKSGAQISTTRTVPLTSSTPLPTSREYETVQRDRNRNSQSRYQCPIEHDDLPIDEISKITIDNHNDDTMSAEKENRFNKNRVEKLGRRGFAKPEVDSQLPHNFKTRLCMTHAAGINPCALGARCKFAHGLKELRASDIPTRYPNNKYKTKLCKNFARGGSGVCPYGLRCEFVHPSDTEFQNIPPYQRKMVEEHDSIPEDYVVARYQPRFMHTSGKATTPTKVTLKQRNVAGSMMCLSNTGRDLEAGGDFNHPEINENDLPPHLRRIRRGNPPVTRSRPSFSTKWTSVENLGLRGHY | not soluble
MSDTDYYRELEASEQRLSDSRAANRESIRTVEDKISDEREKHVARMSEKEKKHHENMLRLTNSSAAERKSAEEAHRKSVEQLKEKHKNETEKLETQIKEIKEKGEEDVRKVELQRANLEKQRTEALDIHLETMKELNEKKFEEIRQQRKEQNILNVEEMKALSTRNAIEHETQMGLIDDTQNMILSRESRQSSLTLIGHMMKSIESGDAISSLLQEMKTYCENRDQYSPTDIKIMKNISADIGKHRAKCDFQRQQLISKINLESNADPQVVDGCFEMSMKMKCCVESSDLRSVCTTLPLLAAQQEHARISGIINKIGSLTDNLDAINVEIKTKSIQWSRRITNALTNTTGN | not soluble
MGHHHHHHSHKIRVAHTPDADDAFMFYAMTHGKVDTWLEIEHVIEDIETLNRKAFNAEYEVTAISAHAYALLDDKYRILSAGASVGDGYGPVVVAKSEISLDGKRIAVPGRYTTANLLLKLAVEDFEPVEMPFDRIIQAVLDEEVDAGLLIHEGQITYADYGLKCVLDLWDWWSEQVKLPLPLGLNAIRRDLSVEVQEEFLRAMRESIAFAIENPDEAIEYAMKYSRGLDRERAKRFAMMYVNDYTYNMPESVDAALKKLYEMAEAKGLIKMPKLDILRL | soluble
